One may read the IC50 as the concentration needed to halve the response being measured. A word on the Kd: it is the constant that tells how readily two partners part at equilibrium. The koff is a measure of how fast the partners let go of each other. For orientation: kon means a measure of how fast the partners come together. Low values mean slow association, high ones fast association.

The target of test [1] is T1, human GIP receptor on HEK293 cells (human) (UniProt P48546).
T1 sequence: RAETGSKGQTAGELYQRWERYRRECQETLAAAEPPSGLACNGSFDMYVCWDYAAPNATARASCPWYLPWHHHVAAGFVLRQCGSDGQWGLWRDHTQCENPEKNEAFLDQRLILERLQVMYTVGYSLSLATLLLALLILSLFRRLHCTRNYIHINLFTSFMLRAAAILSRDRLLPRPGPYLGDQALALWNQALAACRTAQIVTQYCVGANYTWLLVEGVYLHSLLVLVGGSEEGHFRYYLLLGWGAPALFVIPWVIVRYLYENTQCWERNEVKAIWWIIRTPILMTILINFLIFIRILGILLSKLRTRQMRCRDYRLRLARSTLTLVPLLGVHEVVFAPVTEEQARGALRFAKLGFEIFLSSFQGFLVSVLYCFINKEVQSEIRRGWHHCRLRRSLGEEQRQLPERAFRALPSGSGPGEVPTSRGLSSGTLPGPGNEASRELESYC

The target of test [2] is T1, human GIP receptor on HEK293 cells (human). In words: fluorescent microvolume assay technology (FMAT) on cells; receptor ligand competition with unlabelled peptides against AlexaFluor 647-labeled GIP on human GIPr-overexpressing cells; data not shown.
The target in the next test is GIP(1–42) peptide (UniProt P09681).
Test [3] concerns the target T2, human GIP receptor on HEK293 cells (human, UniProt P48546).
T2 construct: glucose-dependent insulinotropic polypeptide receptor, human, full-length receptor gene; also called HEK293 human GIPr; hGIPr; source: HEK293, stably transfected (pIRESneo3), on cells

Another test addresses T3, biotinylated GIPr ECD (Homo sapiens, biotin (EZ-link Sulfo-NHS-LC-Biotin), positions not stated).
T3 construct: glucose-dependent insulinotropic polypeptide receptor, human, extracellular domain; same construct as m4, biotinylated; held on Super Streptavidin biosensors; also called soluble biotinylated GIPr ECD
T3 chain: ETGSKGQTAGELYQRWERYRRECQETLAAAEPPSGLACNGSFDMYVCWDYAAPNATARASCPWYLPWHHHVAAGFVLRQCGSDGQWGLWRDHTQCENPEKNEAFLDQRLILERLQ
The test is described as follows: BLI; Octet RED (reflectometric interference spectroscopy); biotinylated GIPr ECD at 1.2 μg/ml on Super Streptavidin biosensors; scFv at ~0.5 μM (12.5 μg/ml), single concentration; PBS with kinetics buffer; 1:1 Langmuir. Particulars: both partners purified. In general terms: In BLI a coated tip is dipped into the sample, and binding shifts an interference pattern.

Test [4] concerns the target T4, GIPr ECD (extracellular domain of the human GIP receptor) (Homo sapiens).
T4 construct: glucose-dependent insulinotropic polypeptide receptor, human, extracellular domain; also called GIPr extracellular domain
T4 chain: T3 chain
The test is described as follows: SPR; BIAcore, Gipg013 Fab and GIPr ECD; who was immobilised is not told for the Fab. Particulars: both partners purified. In general terms: In SPR one partner is held on a chip, and binding of the other changes the refractive index at the surface.

The target in test [5] is T2, human GIP receptor on HEK293 cells. This is another data set of the same source.
For test [6] the target is unchanged. The test is described as follows: fluorescent microvolume assay technology (FMAT) on cells; receptor ligand competition: dilution series of antibody against 0.5 nM AlexaFluor 647-labeled GIP on HEK293 human GIPr cells, Hanks' balanced salt solution with 0.1% BSA, room temperature, 1–2 h. To be noted: one partner purified.
Test [7] deals with T4, GIPr ECD (extracellular domain of the …). In words: SPR; Biacore 2000; Gipg013 IgG amine-coupled to a CM5 chip at low density (~139 resonance units), GIPr ECD in solution; 25 °C, 30 μl/min, HBS-N (10 mM HEPES, pH 7.4, 150 mM sodium chloride); 1:1 Langmuir model. Particulars: both partners purified.
For test [8], the target named is T5, mouse GLP-1 receptor on overexpressing cells (Mus musculus, UniProt O35659).
T5 construct: glucagon-like peptide 1 receptor, mouse; also called mGLP-1r; source: stably transfected cell line, on cells
The test is described as follows: fluorescent microvolume assay technology (FMAT) on cells; 0.25 μg/ml IgG with AlexaFluor 647-labeled goat anti-human IgG on stably transfected cells (5000 cells a well), Hanks' balanced salt solution with 0.1% BSA, room temperature, 3 h. Particulars: one partner purified.

The target of test [9] is T6, human glucagon receptor on overexpressing cells (Homo sapiens, UniProt P47871).
T6 construct: glucagon receptor, human; also called GCGr; hGCGr; source: stably transfected cell line, on cells
Described as above. To be noted: one partner purified.

For test [10], the target named is T7, rat GLP-1 receptor on overexpressing cells (Rattus norvegicus, UniProt P32301).
T7 construct: glucagon-like peptide 1 receptor, rat; also called rGLP-1r; source: stably transfected cell line, on cells
Described as above. Particulars: one partner purified.

Test [11] addresses T8, rat glucagon receptor on overexpressing cells (Rattus norvegicus, UniProt P30082).
T8 construct: glucagon receptor, rat; also called GCGr; rGCGr; source: stably transfected cell line, on cells
The test is described as above. To be noted: one partner purified.

Test [12] addresses T9, mouse GIP receptor on HEK293 cells (Mus musculus, UniProt Q0P543).
T9 construct: glucose-dependent insulinotropic polypeptide receptor, mouse, full-length receptor gene; also called mGIPr; source: HEK293, stably transfected (pIRESneo3), on cells
Described as above. To be noted: one partner purified.

For test [13], the target named is T10, human GLP-1 receptor on overexpressing cells (Homo sapiens, UniProt P43220).
T10 construct: glucagon-like peptide 1 receptor, human; also called hGLP-1r; source: stably transfected cell line, on cells
The test is described as above. Particulars: one partner purified.

The target in test [14] is T11, mouse glucagon receptor on overexpressing cells (Mus musculus, UniProt Q61606).
T11 construct: glucagon receptor, mouse; also called GCGr; mGCGr; source: stably transfected cell line, on cells
Described as above. To be noted: one partner purified.

The target of test [15] is T12, dog GLP-1 receptor on overexpressing cells (Canis lupus familiaris, UniProt A0A8I3NUR9).
T12 construct: glucagon-like peptide 1 receptor, dog; also called dGLP-1r; source: stably transfected cell line, on cells
Described as above. Particulars: one partner purified.

Read-outs that look alike come from different tables or passages of the source.

T7 sequence (P32301 22-463): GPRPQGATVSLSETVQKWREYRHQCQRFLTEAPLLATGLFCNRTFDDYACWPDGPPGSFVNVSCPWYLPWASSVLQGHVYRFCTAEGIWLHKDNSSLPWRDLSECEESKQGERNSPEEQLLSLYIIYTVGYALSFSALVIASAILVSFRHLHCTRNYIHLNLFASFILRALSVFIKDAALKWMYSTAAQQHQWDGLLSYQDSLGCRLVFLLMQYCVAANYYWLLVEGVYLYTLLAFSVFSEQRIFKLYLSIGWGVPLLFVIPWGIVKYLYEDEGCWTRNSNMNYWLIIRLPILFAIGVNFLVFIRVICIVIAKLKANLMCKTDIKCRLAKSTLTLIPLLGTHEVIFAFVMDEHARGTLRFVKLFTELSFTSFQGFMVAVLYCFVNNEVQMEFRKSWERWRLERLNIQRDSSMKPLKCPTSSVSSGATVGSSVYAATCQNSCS
T9 sequence (Q0P543 19-460): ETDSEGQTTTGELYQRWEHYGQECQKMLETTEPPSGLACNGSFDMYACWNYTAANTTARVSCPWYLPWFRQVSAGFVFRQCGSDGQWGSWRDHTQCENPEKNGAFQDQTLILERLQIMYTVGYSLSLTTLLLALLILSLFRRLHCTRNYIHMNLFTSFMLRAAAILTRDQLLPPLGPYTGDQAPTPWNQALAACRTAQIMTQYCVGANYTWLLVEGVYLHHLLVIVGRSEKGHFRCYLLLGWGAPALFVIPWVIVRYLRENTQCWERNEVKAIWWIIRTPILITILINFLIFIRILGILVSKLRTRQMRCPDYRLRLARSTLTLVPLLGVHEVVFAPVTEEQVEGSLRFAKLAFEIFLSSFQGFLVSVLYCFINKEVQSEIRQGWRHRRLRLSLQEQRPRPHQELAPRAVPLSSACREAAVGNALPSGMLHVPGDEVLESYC
T10 sequence (P43220 24-463): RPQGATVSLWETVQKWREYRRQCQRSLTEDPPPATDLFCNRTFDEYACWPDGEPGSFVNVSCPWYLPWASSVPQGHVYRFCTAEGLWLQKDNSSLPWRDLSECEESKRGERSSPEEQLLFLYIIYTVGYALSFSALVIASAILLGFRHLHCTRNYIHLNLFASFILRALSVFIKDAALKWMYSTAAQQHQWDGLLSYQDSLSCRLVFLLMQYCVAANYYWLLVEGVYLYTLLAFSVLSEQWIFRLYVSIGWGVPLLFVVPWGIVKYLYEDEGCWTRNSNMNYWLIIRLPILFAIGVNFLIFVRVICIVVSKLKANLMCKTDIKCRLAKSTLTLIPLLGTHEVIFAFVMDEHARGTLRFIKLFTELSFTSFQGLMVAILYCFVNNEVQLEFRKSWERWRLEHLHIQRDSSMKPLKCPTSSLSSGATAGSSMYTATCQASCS
T5 sequence (O35659 22-463): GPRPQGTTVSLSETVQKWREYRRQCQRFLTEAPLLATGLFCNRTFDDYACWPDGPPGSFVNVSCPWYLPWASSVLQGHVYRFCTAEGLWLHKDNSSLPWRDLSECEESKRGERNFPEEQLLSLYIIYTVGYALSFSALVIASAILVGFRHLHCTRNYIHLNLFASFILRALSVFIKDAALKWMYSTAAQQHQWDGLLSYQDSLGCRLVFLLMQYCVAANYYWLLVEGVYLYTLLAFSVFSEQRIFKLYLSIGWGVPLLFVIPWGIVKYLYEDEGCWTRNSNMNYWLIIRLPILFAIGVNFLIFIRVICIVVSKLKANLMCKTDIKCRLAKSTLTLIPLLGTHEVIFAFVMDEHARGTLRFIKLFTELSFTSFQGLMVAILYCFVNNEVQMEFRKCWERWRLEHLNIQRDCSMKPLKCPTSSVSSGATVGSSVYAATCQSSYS
T11 sequence (Q61606 27-485): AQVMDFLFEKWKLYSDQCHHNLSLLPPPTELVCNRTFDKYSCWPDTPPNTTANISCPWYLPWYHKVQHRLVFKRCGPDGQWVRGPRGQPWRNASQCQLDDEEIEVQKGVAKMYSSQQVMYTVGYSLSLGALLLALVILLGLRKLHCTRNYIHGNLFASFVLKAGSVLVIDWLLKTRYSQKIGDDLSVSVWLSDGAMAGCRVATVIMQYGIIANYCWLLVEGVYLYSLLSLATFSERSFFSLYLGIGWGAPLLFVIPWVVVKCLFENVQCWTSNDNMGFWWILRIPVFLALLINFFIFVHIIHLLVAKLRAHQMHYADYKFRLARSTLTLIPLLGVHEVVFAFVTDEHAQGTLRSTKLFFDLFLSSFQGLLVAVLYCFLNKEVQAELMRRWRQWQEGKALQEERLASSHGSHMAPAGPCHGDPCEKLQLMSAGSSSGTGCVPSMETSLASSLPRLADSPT
T8 sequence (P30082 27-485): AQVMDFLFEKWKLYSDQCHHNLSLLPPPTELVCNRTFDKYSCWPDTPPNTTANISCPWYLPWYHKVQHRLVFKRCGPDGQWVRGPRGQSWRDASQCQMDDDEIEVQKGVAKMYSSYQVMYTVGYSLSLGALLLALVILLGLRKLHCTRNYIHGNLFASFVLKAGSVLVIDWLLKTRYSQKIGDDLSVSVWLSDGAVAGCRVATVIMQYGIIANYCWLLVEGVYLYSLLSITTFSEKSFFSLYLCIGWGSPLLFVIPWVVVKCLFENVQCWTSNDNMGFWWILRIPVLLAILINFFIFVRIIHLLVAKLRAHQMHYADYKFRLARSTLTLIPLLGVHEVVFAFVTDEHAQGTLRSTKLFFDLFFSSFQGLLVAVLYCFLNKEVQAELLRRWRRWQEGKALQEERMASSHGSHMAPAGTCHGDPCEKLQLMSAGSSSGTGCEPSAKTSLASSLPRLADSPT
T6 sequence (P47871 26-477): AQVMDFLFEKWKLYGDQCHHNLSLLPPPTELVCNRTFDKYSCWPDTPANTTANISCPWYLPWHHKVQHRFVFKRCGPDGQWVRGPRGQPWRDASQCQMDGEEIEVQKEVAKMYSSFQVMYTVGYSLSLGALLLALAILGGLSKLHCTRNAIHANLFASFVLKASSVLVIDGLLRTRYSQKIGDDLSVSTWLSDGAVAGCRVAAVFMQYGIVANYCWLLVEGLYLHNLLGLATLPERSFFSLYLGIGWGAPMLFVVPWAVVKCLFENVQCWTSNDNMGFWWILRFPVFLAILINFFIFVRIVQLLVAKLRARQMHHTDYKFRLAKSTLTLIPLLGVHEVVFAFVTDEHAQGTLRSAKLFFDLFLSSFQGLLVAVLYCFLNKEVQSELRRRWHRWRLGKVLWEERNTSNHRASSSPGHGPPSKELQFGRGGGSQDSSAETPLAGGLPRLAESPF

For Pro3GIP (peptide), in test [1], the cAMP HTRF assay, agonism in HEK293 human GIPr cells (partial, to 83% of the response with GIP) turned out to be 180 nM.

Turning to GIP(7–30) (peptide), the cAMP HTRF assay, antagonism of GIP-induced cAMP production in HEK293 human GIPr cells in test [1] came out at 230 nM. The half-maximal inhibitory concentration (IC50) in test [2] worked out at 83 nM.

The molecule “biotinylated GIPr ECD (domain or fragment)” had a cAMP assay on HEK293 GIPr cells: soluble GIPr ECD competes with the cell surface GIPr for GIP with GIP(1–42) peptide of 7 µM.

B1: Gipg013 scFv (scFv, V domains shown)
VH: QVQLQQSGAEVKKPGSSVKVSCKASGGTFSSYAISWVRQAPGQGLEWMGGIIPTFGTANYAQKFQGRVTITADESTSTAYMELSSLRSEDTAVYYCAQGPIVGAPTDYWGKGTLVTVSS
VL: SYVLTQPPSASGTPGQRVAISCSGSNSNIGSNTVHWYQQLPGAAPKLLIYSNNQRPSGVPDRFSGSNSGTSASLAISRLQSEDEADYYCAAWDDSLNGVVFGGGTKVTVL
notes: VH as in the heavy chain of m1; VL as in the light chain of m1; phage vector pCantab6 is named for the libraries
Turning to B1, the cAMP HTRF assay, antagonism of GIP-induced cAMP production in HEK293 human GIPr cells (blocks GIP on GIPr) in test [3] was found to be 233 nM. For the same molecule, in the test with biotinylated GIPr ECD, the Kd amounted to 25 nM, the koff was determined as 0.00188 s⁻¹ and the kon worked out at 74500 M⁻¹ s⁻¹.

B2: Gipg013 Fab (Fab, V domains shown)
VH: B1 VH
VL: B1 VL
notes: heavy chain of the Fab, PDB 4HJ0 chains P and C (final model Gln3-Val217, 206 residues); as the heavy chain of m1 up to the papain cut; light chain of the Fab, PDB 4HJ0 chains Q and D (final model Ser1-Glu213, 211 residues); as the light chain of m1; also called Gip013 Fab; source: papain digestion of the antibody
For B2, the affinity in test [4], expressed as Kd, was 40 nM. This molecule displayed a cAMP HTRF assay, antagonism of GIP-induced cAMP production in HEK293 human GIPr cells (blocks GIP on GIPr) in test [5] of 102 nM.

B3: Gipg013 IgG (antibody, V domains shown)
VH: B1 VH
VL: B1 VL
notes: VH of Gipg013; also in PDB 4HJ0 (heavy chain of the Fab, chains P and C); heavy chain constant region of human IgG1 (full-length antibody in the IgG1 format); the light chain is in PDB 4HJ0 (chains Q and D); IgG1; converted from the scFv clone; also called GIP013; Gipr013; source: mammalian cells (variable genes cloned into the pEU vectors), purified; copies: 2 + 2
For B3, in test [6], the half-inhibitory concentration (IC50) was 17.2 ± 6 nM. This molecule also displayed a dissociation constant Kd in [7] of 23 nM. The molecule also registered a koff in [7] of 0.00369 s⁻¹. This molecule returned a kon in [7] of 159000 M⁻¹ s⁻¹. In addition, the binding result in test [8] is recorded as “no binding (tested: 0.25 μg/ml)”; in test [9], “no binding (tested: 0.25 μg/ml)”; in test [10], “no binding (tested: 0.25 μg/ml)”; in test [11], “no binding (tested: 0.25 μg/ml)”; in test [12], “binds”; in test [13], “no binding (tested: 0.25 μg/ml)”. The binding result in [14] and in test [15] was “no binding (tested: 0.25 μg/ml)” in each case.
